Source: patent US20240309087A1 (SHANGHAI JUNSHI BIOSCIENCES, published 2024)
Where a chain is given by its changes, count along the chain named.

T1: hCD112R mFC recombinant protein (human; murine, UniProt Q6DKI7 41-160)
T1 construct: range 41-160; expressed in 293E cells; also called hCD112R ECD mFC; hCD112R-ECD-mFC; not shown: murine IgG2a Fc domain (MX2-mFc vector)
T1 sequence (looked up): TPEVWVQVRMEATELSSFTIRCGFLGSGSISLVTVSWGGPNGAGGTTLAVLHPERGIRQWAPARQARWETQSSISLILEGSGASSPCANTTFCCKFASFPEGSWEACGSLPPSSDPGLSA

T2: human CD112R on CHO-CD112R cells (human, UniProt Q6DKI7 41-326)
T2 construct: whole, on cells; also called hCD112R; PVRIG
T2 sequence (looked up): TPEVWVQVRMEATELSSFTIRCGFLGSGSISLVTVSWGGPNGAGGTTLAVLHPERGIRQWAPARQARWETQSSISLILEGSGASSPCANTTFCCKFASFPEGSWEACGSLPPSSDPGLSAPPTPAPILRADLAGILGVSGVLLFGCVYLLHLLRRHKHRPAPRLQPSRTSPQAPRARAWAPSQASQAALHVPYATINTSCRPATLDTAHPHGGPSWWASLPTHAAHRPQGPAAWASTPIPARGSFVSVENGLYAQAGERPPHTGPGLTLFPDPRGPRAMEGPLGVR

T3: recombinant cynomolgus monkey CD112R antigen (cynomolgus monkey, UniProt A0A2K5WVV8 1-322)
T3 construct: bought
T3 sequence: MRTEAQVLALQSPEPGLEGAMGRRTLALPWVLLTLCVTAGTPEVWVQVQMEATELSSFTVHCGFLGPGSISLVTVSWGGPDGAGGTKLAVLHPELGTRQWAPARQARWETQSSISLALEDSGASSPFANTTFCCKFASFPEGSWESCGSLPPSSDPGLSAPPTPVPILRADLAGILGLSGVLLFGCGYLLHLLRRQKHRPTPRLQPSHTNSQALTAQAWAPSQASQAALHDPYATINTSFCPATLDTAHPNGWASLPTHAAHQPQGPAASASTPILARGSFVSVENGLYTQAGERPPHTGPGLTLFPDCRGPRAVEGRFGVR

T4: human CD112R on Jurkat CD112R effector cells (human, UniProt Q6DKI7 1-326)
T4 sequence (looked up): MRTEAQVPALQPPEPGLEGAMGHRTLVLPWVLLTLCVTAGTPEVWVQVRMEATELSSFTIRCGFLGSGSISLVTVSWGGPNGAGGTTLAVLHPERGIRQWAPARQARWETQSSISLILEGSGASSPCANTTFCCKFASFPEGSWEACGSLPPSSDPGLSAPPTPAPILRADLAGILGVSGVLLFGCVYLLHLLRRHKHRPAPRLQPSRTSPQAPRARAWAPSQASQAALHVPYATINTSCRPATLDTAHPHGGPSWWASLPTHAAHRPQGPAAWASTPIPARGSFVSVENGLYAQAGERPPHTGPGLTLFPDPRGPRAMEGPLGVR

B1: Chi-71 (antibody, V domains shown)
VH: DVQLVESGGGLVKLGGSLKLSCVASGFTFSSYHMSWIRQTPEKRLELVAAINSNDINTYYLDTVKGRFTISRDIAKNTLHLQMSSLKSEDTALYYCARHEDYYGFAMDYWGQGTSVTVSS
VL: SIVMTQTPKFLLVSAGDRVTITCKASQSVTNDVAWYQQKPGQSPKLLMYYVSNHYTGVPDRFIGSGYGTDFTFTISTVQAEDLAVYFCQQAYRSPWTFGGGTKLEIK
notes: chimeric
B2: Chi-61 (antibody, V domains shown)
VH: DVKLVESGGGLVKLGGSLKLSCAASGFTFSSYHMSWVRQTPEKRLELVAAISRDGDSTYYPDTVKGRFTISRDDAENTLYLQMSSLKSEDTALYYCSRHEDYFGFAMDSWGQGTSVTVSS
VL: B1 VL with T30S, Q38E, N53H, H54R, Y55F, I63T, S76N, Q89H
notes: chimeric
B3: Chi-70 (antibody, V domains shown)
VH: B1 VH
VL: B1 VL with T30S, H54R, Y55F, I63T, S76N
notes: chimeric
B4: Chi-55 (antibody, V domains shown)
VH: B1 VH with Q3K, V23A, D55G, I74N, H80Y
VL: B1 VL
notes: chimeric
B5: Chi-53 (antibody, V domains shown)
VH: B1 VH with Q3K, V23A, D55G, I74N, H80Y
VL: B1 VL with T30S, Q38E, N53H, H54R, Y55F, I63T, S76N, Q89H
notes: chimeric
B6: Chi-69 (antibody, V domains shown)
VH: B1 VH
VL: B1 VL with T30S, Q38E, N53H, H54R, Y55F, I63T, S76N, Q89H
notes: chimeric
B7: 6A6.1 (antibody, V domains shown)
VH: EVQLQQSGAELVRSGTSVTLSCTASGFNIRDYFIHWVKQRPEQGLEWIGWIIPASGDTDCAPIFQGKATLTADTFSNTAYLHLNSLTSEDTAVYYCNTWVWSPYAVDYWGQGTSVTVSS
VL: DVLMTQTPLSLPVSLGDQTSISCRSSQSIVHSNGNTYLHWYLQKPGQSPKLLIYKVSNRFSGVPDRFSGSGSGTDFTLKISRVEAEDLGVYYCFQGSHVPWTFGGGTRLEIK
notes: murine hybridoma antibody
B8: 6C6.1 (antibody, V domains shown)
VH: EVQLQQSGPELVRPGASVRISCKASGYTFTDYNMNWVKQSHGKSLEWIGYIYPYNGGAGYNQNFKNKATLTVDTYSRAAYMELRSLTSEDSAVYYCARERGMQRDYFDYWGQGTILTVSS
VL: DIQMTQSPASLSVSVGETVTITCRTSENIYSNLAWYQQKQGKSPQLLVYAATNLADGVPSRFSGSGSGTQFSLKINSLQSGDFGSYFCQHFWGTPYTFGGGTKLEIK
notes: murine hybridoma antibody

target: T1, hCD112R mFC recombinant protein; test: FACS blocking: hCD112R mFc (5 µg/mL) binding to human CD112 on CHO CD112 cells, MFI-APC; unit from the axis (µg/mL), Table 8 says ng/ml
Procedure: (§1) Cells CHO CD112 overexpressing human CD112 were co-incubated with a hCD112R mFc protein solution (5 μg/mL) prepared in a staining buffer (PBS+1% FBS), and the chimeric anti-CD112R antibodies or the control antibodies at different concentrations (initial concentration: 100 μg/mL, 3-fold dilution, 10 concentration gradients) at 4° C. for 30 min. Unbound antibodies were then washed with a staining buffer and the cells were incubated with 1% (v/v) goat anti-mouse IgG Fc fluorescent secondary antibodies (Jackson ImmunoResearch) prepared in a staining buffer at 4° C. for 30 min in the dark. Finally, the cells were collected by using a flow cytometer (BD Canto II), and the fluorescent antibodies bound to the cell surface were detected. Raw data were analyzed by using FlowJo to obtain MFI values, and a four-parameter curve fitting was performed by using GraphPad Prism software to obtain IC₅₀ values. The positive control and the negative control were Ref (anti-CD112R antibody, University of Colorado, obtained by expression and purification according to the sequences in US20170240613) and the anti-KLH hu-IgG4 antibody, respectively.

IC50 [µg/mL]	Binder
0.733	B1
0.965	B2
0.708	B3
1.02	B4
0.979	B5
0.959	B6

target: T1, hCD112R mFC recombinant protein; test: FACS competition, hCD112R mFc on CHO CD112 cells
Procedure: Unbound antibodies were then washed with a staining buffer and the cells were incubated with 1% (v/v) goat anti-mouse IgG Fc fluorescent secondary antibodies (Jackson ImmunoResearch) prepared in a staining buffer at 4° C. for 30 min in the dark. Finally, the cells were collected by using a flow cytometer, and the fluorescent antibodies bound to the cell surface were detected. Raw data were analyzed by using FlowJo to obtain MFI values, and a four-parameter curve fitting was performed by using GraphPad Prism software to obtain IC₅₀ values.

IC50 [µg/mL]	Binder
0.145	B7
0.0229	B8

target: T2, human CD112R on CHO-CD112R cells; test: FACS on CHO-CD112R cells; EC50 Ref/EC50 antibody
Procedure: (§2) CHO-CD112R cells (constructed in-house by Junshi, the amino acid sequence of CD112R in the construction of stable cell lines overexpressing CD112R comprises amino acids at positions Met1-Arg326 under NCBI accession No. Q6DKI7) overexpressing human CD112R were incubated with each of the chimeric anti-CD112R antibodies at different concentrations (initial concentration: 50 μg/mL, 5-fold dilution, 12 concentration gradients in total) at 4° C. for 30 min, and then washed and incubated with a fluorescence-labeled secondary antibody at 4° C. for 30 min in the dark. Finally, the cells were collected by using a flow cytometer (BD Canto II), and the fluorescent antibodies bound to the cell surface were detected. Raw data were analyzed by using FlowJo to obtain MFI values, the antibody dose-dependent binding curves were fitted by using GraphPad (FIG. 3, a and b) and EC₅₀ was calculated (Table 3). The positive control and the negative control were Ref (anti-CD112R antibody, University of Colorado, obtained by expression and purification according to the sequences in US20170240613) and anti-KLH hu-IgG4 antibody, respectively.

Relative activity (%)	Binder
2090	B1
3990	B2
1640	B3
3050	B4
268	B5
1630	B6

target: T3, recombinant cynomolgus monkey CD112R …; test: ELISA, coated cynomolgus monkey CD112R
Procedure: (§3) A plate was coated with a recombinant cynomolgus monkey CD112R antigen (Acrobiosystems, Cat No. PVG-C5259) at a fixed concentration, and the chimeric anti-CD112R antibodies diluted in a gradient (initial concentration: 1 μg/mL, 2.5-fold gradient dilution, 12 concentration gradients in total) were added to bind to the antigen. Horseradish peroxidase (HRP)-conjugated mouse anti-human IgG4 Fc (Southern Biotech, 9200-05) was subjected to a 5000-fold dilution and used as a detection antibody for detection. The color development was performed with 0.1 mg/mL TMB, and finally stopped with 2 M hydrochloric acid. The plate was read at 420 nm/620 nm. EC₅₀ was obtained by fitting with a four-parameter logistic regression (4PL) model.

EC50 [µg/mL]	Binder
0.00442	B1
0.005	B2
0.00383	B3
0.00419	B4
0.0033	B5
0.00474	B6

target: T1, hCD112R mFC recombinant protein; test: Biacore T200, antibody captured, hCD112R mFc injected
Procedure: Biacore T200 was used to assay the binding affinity of the anti-CD112R hybridoma antibodies for the recombinant hCD112R mFc protein. […] antibody fragments (Jackson ImmunoResearch) were coupled to the surface of a CM5 chip, and the anti-CD112R hybridoma antibodies were each captured by using the chip, after which recombinant hCD112R mFc proteins at different concentrations were injected into the CM5 chip.

Kd [nM]	Binder
0.0174	B7
0.0205	B8

target: T1, hCD112R mFC recombinant protein; test: FACS competition, hCD112R mFc on CHO CD112 cells; remark: another data set of the same source
Procedure: as §1
As shown in FIG. 5 (a and b) and Table 8, the following 13 chimeric antibodies were all capable of effectively blocking the binding of the CD112R protein to CHO-CD112 cells.

IC50 [µg/mL]	Binder
0.733	B1
0.965	B2
0.708	B3
1.02	B4
0.979	B5
0.959	B6

target: T3, recombinant cynomolgus monkey CD112R …; test: ELISA, coated cynomolgus monkey CD112R; EC50 Ref/EC50 antibody
Procedure: as §3

Relative activity (%)	Binder
94.8	B1
83.8	B2
109	B3
100	B4
106	B5
88.4	B6

target: T4, human CD112R on Jurkat CD112R effector …; test: cell-based or functional assay

EC50, CD112R/CD112 reporter [µg/mL]	Relative activity (%), EC50 Ref/EC50 antibody [%]	Binder
0.0194	1470	B1
0.019	1590	B2
0.0139	1870	B3
0.0131	2310	B4
0.0129	2430	B5
0.0187	1390	B6

target: T1, hCD112R mFC recombinant protein; test: FACS competition, hCD112R mFc on CHO CD112 cells; ratio Ref/antibody
Procedure: as §1

Relative activity (%)	Binder
144	B1
110	B2
150	B3
104	B4
108	B5
110	B6

target: T2, human CD112R on CHO-CD112R cells; test: FACS on CHO-CD112R cells
Procedure: as §2

EC50 [µg/mL]	Binder
0.205	B1
0.107	B2
0.26	B3
0.14	B4
0.627	B5
0.262	B6
